Data on 40 sequences can be found in the nanobody polyreactivity screen of Harvey et al. (2022).

The data set can be described thus: yeast display, Sf9 membrane polyspecificity reagent, FACS + sequencing; frameworks hold sequencing errors. In short, it runs like this: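 In a synthetic yeast display library (Saccharomyces cerevisiae BJ5465), nanobody expression was induced with galactose for 36–48 hours. FACS gates were set low and high (top ~1%) using anti-HA fluorescence for expression and streptavidin fluorescence for binding of the Sf9 membrane reagent. Each polyreactivity label is drawn from the gate of origin.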
Consider “QVQLVESGGGLVQAGGSLRLSCAASGRIFKYHAMGWYRQAPGKERELVAAITWGGGGTYYADSVKGRFTISRDNAKNTVYLQMNSLIPEDTAVYYCNTERWGTGKLRYNYWGPGTQVTVSS”, for which the “polyreactivity (PSR sort gate)” value is recorded as “low polyreactivity”.

As for “QVQLVESGGGLVQAGGSLRLSCAASGRIFKYNAMGWYRQAPGKEREFVARITSGGRTYYADSVKGRFTISRDNAKNTVYLQMNSLKPEDTAVYYCNAEDVRYWVRGYRMGYWGQGTQVTVSS”, the “polyreactivity (PSR sort gate)” value was “high polyreactivity”.

Regarding “QVQLVESGGGLVQAGGSLRLSCAASGRIFKYYAKGWYRQAPGKERELVAAISWSGGRTYYADSVKGRFTISRDNAKTTVYLQMNSLKPEDTAVYDCNAASLRYSYTLFDSWGQGTQVTVSS”, the “polyreactivity (PSR sort gate)” value is given as “high polyreactivity”.

For the sequence “QVQLVESGGGLVQAGGSLRLSCAASGRIFKYYAMGWYRQAPGKERELVAAISRSGGSTYYADSVKGRFSISRDNAKNTVYLQMNSLKPEDTAVYYCAAGYKQATYDRIRTAYGYWGQGTQVTVSS”, the “polyreactivity (PSR sort gate)” value is “high polyreactivity”.

As to “QVQLVESGGGLVQAGGSLRLSCAASGRIFKYYAMGWYRQAPGKERELVAAITWSGGNTYYADSVKGRFTISRDNAKNTVYLQMNSLKPEDTAVYYCAREVYYPIRQYNYWGQGTQVTVSS”, the “polyreactivity (PSR sort gate)” value is reported as “high polyreactivity”.

With “QVQLVESGGGLVQAGGSLRLSCAASGRIFKYYTMGWSRQAPGKERELVAAISRDDSTNYADSVKGRFTISRDNAKNTVYLQMNSLKPEDTAVYYCAKGYHQYAGFYYWGQGTQVTVSS”, the “polyreactivity (PSR sort gate)” value is “high polyreactivity”.

Regarding “QVQLVESGGGLVQAGGSLRLSCAASGRIFKYYVMGWYRQAPGKEREFVAAISGRGGRTYYADSVKGRFTISRDNAKNTVYLQMNSLKPEDTAVYYCATERQERGPLGYNYWGLGTQVTVSS”, the “polyreactivity (PSR sort gate)” value was “high polyreactivity”.

With “QVQLVESGGGLVQAGGSLRLSCAASGRIFKYYVMGWYRQAPGKESELVAAISSGSGSTYYADSVKGRFTISRDNAKNTVYLQMNSLKPEDTAVYYCNALSSWRRTYGSRYDYWGQGTQVTVSS”, the “polyreactivity (PSR sort gate)” value is listed as “high polyreactivity”.

As for “QVQLVESGGGLVQAGGSLRLSCAASGRIFLDNTMGGYRQATGKERELVATISSGASTNYADSVKGRFTISRDNAKNTVYLQMNSLKPEDTGVYYCNARVGGYPLWYKKYYYWGQGTQVNVSS”, the “polyreactivity (PSR sort gate)” value is recorded as “low polyreactivity”.

As for “QVQLVESGGGLVQAGGSLRLSCAASGRIFLFYAMGWYRQAPGKERELVAAISIGSTDYADSVKGRFTISRDNAKNTVYLQMNSLKPEDTAVYYCAADFIITYDEYDYWGQGTQVTVSS”, the “polyreactivity (PSR sort gate)” value is listed as “high polyreactivity”.

Take “QVQLVESGGGLVQAGGSLRLSCAASGRIFLGNAMGWYRQAPGKERELVAAIDASGGSTYYADSVKGRFTISRDNAKNTVYLQMNSLKPEDTAVYYCNAEPRYYSGGHGYDYWGQGTQVTVSS”: the “polyreactivity (PSR sort gate)” value is reported as “low polyreactivity”.

As for “QVQLVESGGGLVQAGGSLRLSCAASGRIFLGNAMGWYRQAPGNERELVADITTDGSTYYADSVKGRFTISRDNAKNTVYLQMNSLKPEVTAVYYCAAGEHPSFRSSYKYDYWGQGTQVTVSS”, the “polyreactivity (PSR sort gate)” value is “low polyreactivity”.

As to “QVQLVESGGGLVQAGGSLRLSCAASGRIFLGNVMGWSRQAPGKERELVAAISSGGSTNYADSVKGRFTISRDNAKNTVYLQMNSLKPEDTAVYYCAAYFVRDWKLYYYWGQGTHVTVSS”, the “polyreactivity (PSR sort gate)” value is listed as “low polyreactivity”.

Regarding “QVQLVESGGGLVQAGGSLRLSCAASGRIFLHYAMGWYRQAPGKERELVAAISRSGGSTYYADSVKGRFTISRDNAKNTVYLQMNSLKPEDTAVYYCAAAYPFKTTEGYFYWGQGTQVTVSS”, the “polyreactivity (PSR sort gate)” value is “high polyreactivity”.

For the sequence “QVQLVESGGGLVQAGGSLRLSCAASGRIFLINALGCYRQAPGKERELVAAIRTGGNTYYADSVKGRFTISRDNAKNTVYLQMNSLKPEDTAVYSCAADRIYPYYRWSGAHRSDVDYWGQGTQVTVSS”, the “polyreactivity (PSR sort gate)” value is given as “low polyreactivity”.

As for “QVQLVESGGGLVQAGGSLRLSCAASGRIFLINGMGWYRQAPGKERELVAVITQSGGTYYADSVKGRFTISRDNAKNTVYLQMNSLKPEDTAVYYCAASSYGASRGYWGQGTQVTVSS”, the “polyreactivity (PSR sort gate)” value is given as “high polyreactivity”.

Consider “QVQLVESGGGLVQAGGSLRLSCAASGRIFLKYSMGWYRQAPGKERELVAAISRGGSTYYADSVKGRFTISRDNAKNTVYLQMNSLKPEDTAVYYCAATSYRRTGYNYWGQGTQVTVSS”, for which the “polyreactivity (PSR sort gate)” value was “high polyreactivity”.

In the case of “QVQLVESGGGLVQAGGSLRLSCAASGRIFLNYAMGWYRQAPGKERELDAAISRRGASTYYADSVKGRFTISRENAKNTVYLQMNSLKPEDTAVYYCATVPGKSGDYWGLGTQVTVSS”, the “polyreactivity (PSR sort gate)” value is on record as “high polyreactivity”.

Regarding “QVQLVESGGGLVQAGGSLRLSCAASGRIFLNYDMGWYTQAPGKERELVADISISGSTDYADSVKWRFTISRDNAKKTVYLQMNCLKPEDTAVYYCATSFYVSDYYVPYEMGYWGQGTQVTVSS”, the “polyreactivity (PSR sort gate)” value is given as “low polyreactivity”.

Regarding “QVQLVESGGGLVQAGGSLRLSCAASGRIFLQYAMGWYRQAPGKERELVAGISSRGGSTYYADSVKGRFTISRDNAKNTVYLQMNSLKPEDTAVYYCAAQTKRIRYVYKHYYWGQGTQVTVSS”, the “polyreactivity (PSR sort gate)” value is listed as “high polyreactivity”.

For the sequence “QVQLVESGGGLVQAGGSLRLSCAASGRIFLRNAMGWYRQAPGKERELVAAISSSGGRTYYADSVKGRFTISRDNAKNTVYLQMNSLKPEDTAVYYCNARWHGSFDYWGQGTQVTVSS”, the “polyreactivity (PSR sort gate)” value is on record as “low polyreactivity”.

Consider “QVQLVESGGGLVQAGGSLRLSCAASGRIFLRTAMGWYRLAPAKERELVASIDSSGGSAYYADSVQGRFTISRDNAKNTVYLQMNSLKPEDTAVFYCNADAYGTPEFTSYAVRYDYGGQGTQVTVSS”, for which the “polyreactivity (PSR sort gate)” value is “low polyreactivity”.

As to “QVQLVESGGGLVQAGGSLRLSCAASGRIFLRYAMGWYRQAPGKERELVAAIDFSAGSTYYADSVKGRFTISRDNAKNTVYLQMNSLKPEDTAVYYCATRLGVLYDYWGQGTQVTVSS”, the “polyreactivity (PSR sort gate)” value is “low polyreactivity”.

For “QVQLVESGGGLVQAGGSLRLSCAASGRIFLRYAMGWYRQAPGKERELVAVITWSGGSTNYADSVKGRFTISRDNAKNTVYLQMNSLKPEDTAVYYCAVDNSGRSWPYDYWGQGTQVTVSS”, the “polyreactivity (PSR sort gate)” value was “low polyreactivity”.

On to “QVQLVESGGGLVQAGGSLRLSCAASGRIFLRYAMGWYRQAPGKERELVAVITWSGGSTNYADSVKGRFTISRDNAKNTVYLQMNSLKREDTAVYYCAVDNTGRSWPYDYWGQGTQVTVSS”, for which the “polyreactivity (PSR sort gate)” value is “low polyreactivity”.

On to “QVQLVESGGGLVQAGGSLRLSCAASGRIFLRYVMGWYRQAPGKERELVAAIRSNGGSTYADSVKGRFTISRDNAKNTVYLQMNSLKPEDTAVYYCAARYFNTKGSFVVGYGYWGQGSQVTVSS”, for which the “polyreactivity (PSR sort gate)” value was “high polyreactivity”.

As to “QVQLVESGGGLVQAGGSLRLSCAASGRIFLSNAMGWYRQAPGKERELVAAISWTGGSTYYADSVKGRFTISRDNAKNTVYLQMNSLKPEDTAVYYCAASTVGQTYSDYVDTYDYWGQGTQVTVSS”, the “polyreactivity (PSR sort gate)” value is “low polyreactivity”.

In the case of “QVQLVESGGGLVQAGGSLRLSCAASGRIFLSNGMGWYRHAPGKERELVAGITTGGGDSTYYADSVKGRFTISRDNAKHTVYLQMNSLKPEDTAVYYCNADSVYAGFDYWGQGPQVTVSS”, the “polyreactivity (PSR sort gate)” value was “low polyreactivity”.

Consider “QVQLVESGGGLVQAGGSLRLSCAASGRIFLSYAMGWYRQAPGKERELVAAITDNGGDTYYADSVKGRFTISRDNAKNTVYLQMNILKPEDTAVYYCAVDGGEFSSYGYWGQGTQVTVSS”, for which the “polyreactivity (PSR sort gate)” value is listed as “low polyreactivity”.

As for “QVQLVESGGGLVQAGGSLRLSCAASGRIFLTYAMGWYRQAPGKERELVAAISTSGTRTYYADSVKGRFTISRDNAMNTVYLQMNSLKPEDTAVYYCAREKYNYRTYEYWGQGTQVTVSS”, the “polyreactivity (PSR sort gate)” value is “high polyreactivity”.

As for “QVQLVESGGGLVQAGGSLRLSCAASGRIFLVYGMGWYREAPGKERELVASITYRGGSTYYADSVKGRFTISRDNAKNTVYLQMNSLKPEDTAVYYCADDGAFYASTEMDYWGQGTQVNVSS”, the “polyreactivity (PSR sort gate)” value is given as “low polyreactivity”.

On to “QVQLVESGGGLVQAGGSLRLSCAASGRIFLVYVMGWYRQAPGKERELVAAISASDGSTYYADSVKGRFTISRDNAKNTVYLQMNSLKPEDTAVYYCAEWGYSLDSNSYRELNYWGQGTQVTVSS”, for which the “polyreactivity (PSR sort gate)” value is recorded as “low polyreactivity”.

Consider “QVQLVESGGGLVQAGGSLRLSCAASGRIFLYAMGWYRQAPGKERELVAAINSGGSTNYADSVKGRFTISRDNAKNTVYLQMNSLKPEDTAVYYCAAEVLYWYRYYYWGQGTQVTVSS”, for which the “polyreactivity (PSR sort gate)” value was “low polyreactivity”.

On to “QVQLVESGGGLVQAGGSLRLSCAASGRIFLYYAMGWYRQAPGKERDFVAAITYIGGSTYYADSVKGRFTISRDNAKNTVYLQMNSLKPEDTAVYDCATDGYRIDVYHPVYRYDYWGQGTQVTVSS”, for which the “polyreactivity (PSR sort gate)” value is reported as “low polyreactivity”.

In the case of “QVQLVESGGGLVQAGGSLRLSCAASGRIFNEYAMGWYRQAPGKERELVAAITYSDDSTYYADSVKGRFTISRDNAKNTVYLQMNSLKPEDTAVYYCNADTPVWDGHAYPVDYWGQGTQVTVSS”, the “polyreactivity (PSR sort gate)” value was “low polyreactivity”.

For “QVQLVESGGGLVQAGGSLRLSCAASGRIFNKNAMGWYRQAPGKERELVAAITYSGGSTYYADSVKGRFTISRDNAKNTVYLQMNSLKPEDTAVYYCARDLYYVYSFAPYRYEYWGQGTQLTVSS”, the “polyreactivity (PSR sort gate)” value is on record as “low polyreactivity”.

As for “QVQLVESGGGLVQAGGSLRLSCAASGRIFNLNAMGWYRQAPGKERELVAAISKSGTRTYYADSVKGRFTISRDNAKNTVYLQMNSLKQEDTAVYYCAAEALYYDRLGWVYLRYDYWGQGTQVTVSS”, the “polyreactivity (PSR sort gate)” value was “high polyreactivity”.

As for “QVQLVESGGGLVQAGGSLRLSCAASGRIFNLYDMGWYRQAPGKERELVAAIRIGDRTYYADSVKGRFTISRDNAKNTVYLQMNSLKPEDTAVYYCNREYLSNRDKRFYYWGQGTQVTVSS”, the “polyreactivity (PSR sort gate)” value is recorded as “low polyreactivity”.

For “QVQLVESGGGLVQAGGSLRLSCAASGRIFNLYGMGWYRQAPGKEREFVATITWSGVTTYADSVKGRFTISRDNAKNTVYLQMNSLKPEDTAVYYCAADYRYRTRWYDYWGQGTQVTVSS”, the “polyreactivity (PSR sort gate)” value was “high polyreactivity”.

“QVQLVESGGGLVQAGGSLRLSCAASGRIFNNYAMGWYRPAPGKERELVAAISTSGGSTYYADSVKGRFTISRDNAKNTVYLQMNSLKPEDTAVYYCNAVSRKRHYAPSYDYWGQGTQVTVSS”: the “polyreactivity (PSR sort gate)” value is listed as “high polyreactivity”.
